Laboratory results taken from PMC12547689.

Tests used:
[1] = biological target: GFP-diS2 (sfGFP H148C V206F) (Aequorea victoria) [GFP: P42212]; assay: fluorescence emission ratio (CRO–O^− : CRO–OH excitation); percentage of dimer after incubation with CuSO4 (1 mM; CuCl2 gave no discernible change for GFP-diS2), 50 mM Tris–HCl pH 8; monomer to disulphide-linked dimer
[2] = biological target: GFP-diS2 (sfGFP H148C V206F) (Aequorea victoria) [GFP: P42212]; assay: fluorescence emission ratio (CRO–O^− : CRO–OH excitation); dimerisation kinetics with 1 mM CuSO4, 50 mM Tris–HCl pH 8, plate reader, excitation 388 nm and 483 nm, emission 516 nm; second order A + A → A2; apparent KD, estimated, non-equilibrium (covalent disulphide dimer); monomer to dimer
[3] = biological target: GFP-diS1 (sfGFP H148C) (Aequorea victoria) [GFP: P42212]; assay: fluorescence emission ratio (CRO–O^− : CRO–OH excitation); percentage of dimer after incubation with CuSO4 (1 mM; CuCl2 gave no discernible change for GFP-diS2), 50 mM Tris–HCl pH 8; monomer to disulphide-linked dimer
[4] = biological target: GFP-diS1 (sfGFP H148C) (Aequorea victoria) [GFP: P42212]; assay: fluorescence emission ratio (CRO–O^− : CRO–OH excitation); dimerisation kinetics with 1 mM CuSO4, 50 mM Tris–HCl pH 8, plate reader, excitation 388 nm and 483 nm, emission 516 nm; second order A + A → A2; apparent KD, estimated, non-equilibrium (covalent disulphide dimer); monomer to dimer

percent dimer with CuSO4 [1] [%]	Kd [2] [µM]	percent dimer after 1 h with CuSO4 [3] [%]	Kd [4] [µM]	Substance
80	4.6			GFP-diS2 (sfGFP H148C V206F) (from UniProt P42212 1-238)
		55	> 25	GFP-diS1 (sfGFP H148C) (from UniProt P42212 1-238)
